Experimental data reported in patent publication US20110027907A1.

Experiments:
[1] = molecular target: TfR-IgA Fc fusion protein, Leu257Ala mutant (Homo sapiens (Human)) (UniProt P01876); test: flow cytometry, biotinylated rSSL7 on CHOP cells expressing TfR-IgA Fc fusion
[2] = molecular target: TfR-IgA Fc fusion protein, His317Ala mutant (Homo sapiens (Human)) (UniProt P01876); test: as above
[3] = molecular target: TfR-IgA Fc fusion protein, Leu256Ala mutant (Homo sapiens (Human)) (UniProt P01876); test: as above
[4] = molecular target: TfR-IgA Fc fusion protein, Leu258Ala mutant (Homo sapiens (Human)) (UniProt P01876); test: as above
[5] = molecular target: TfR-IgA Fc fusion protein, Asn316Ala mutant (Homo sapiens (Human)) (UniProt P01876); test: as above
human serum IgA (human) = test: BIAcore, human serum IgA on CM5 chip, SSL7 mutant as analyte
[6] = molecular target: human serum complement factor C5 (human) (UniProt P01031); test: cell-based or functional assay
[7] = molecular target: TfR-IgA Fc fusion protein, Leu257Ala mutant (Homo sapiens (Human)) (UniProt P01876); test: flow cytometry, FcαRI-Ig on CHOP cells expressing TfR-IgA Fc fusion
[8] = molecular target: TfR-IgA Fc fusion protein, Leu256Ala mutant (Homo sapiens (Human)) (UniProt P01876); test: as above
[9] = molecular target: TfR-IgA Fc fusion protein, Leu258Ala mutant (Homo sapiens (Human)) (UniProt P01876); test: as above

TfR-IgA Fc fusion protein, Leu258Ala mutant (Homo sapiens (Human)), sequence (P01876 123-331 L139A limits assumed): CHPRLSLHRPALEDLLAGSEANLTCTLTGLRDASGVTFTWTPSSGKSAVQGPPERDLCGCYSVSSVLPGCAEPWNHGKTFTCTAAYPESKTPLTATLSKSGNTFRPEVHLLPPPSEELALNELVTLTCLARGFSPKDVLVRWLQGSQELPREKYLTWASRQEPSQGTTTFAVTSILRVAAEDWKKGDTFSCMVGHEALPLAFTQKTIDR
TfR-IgA Fc fusion protein, Leu257Ala mutant (Homo sapiens (Human)), sequence (P01876 123-331 L138A limits assumed): as the sequence (P01876 123-331 L139A limits assumed) above, with L16A, A17L counted along it
human serum complement factor C5 (human), sequence (P01031 19-673 limits assumed, chain 1 of 2): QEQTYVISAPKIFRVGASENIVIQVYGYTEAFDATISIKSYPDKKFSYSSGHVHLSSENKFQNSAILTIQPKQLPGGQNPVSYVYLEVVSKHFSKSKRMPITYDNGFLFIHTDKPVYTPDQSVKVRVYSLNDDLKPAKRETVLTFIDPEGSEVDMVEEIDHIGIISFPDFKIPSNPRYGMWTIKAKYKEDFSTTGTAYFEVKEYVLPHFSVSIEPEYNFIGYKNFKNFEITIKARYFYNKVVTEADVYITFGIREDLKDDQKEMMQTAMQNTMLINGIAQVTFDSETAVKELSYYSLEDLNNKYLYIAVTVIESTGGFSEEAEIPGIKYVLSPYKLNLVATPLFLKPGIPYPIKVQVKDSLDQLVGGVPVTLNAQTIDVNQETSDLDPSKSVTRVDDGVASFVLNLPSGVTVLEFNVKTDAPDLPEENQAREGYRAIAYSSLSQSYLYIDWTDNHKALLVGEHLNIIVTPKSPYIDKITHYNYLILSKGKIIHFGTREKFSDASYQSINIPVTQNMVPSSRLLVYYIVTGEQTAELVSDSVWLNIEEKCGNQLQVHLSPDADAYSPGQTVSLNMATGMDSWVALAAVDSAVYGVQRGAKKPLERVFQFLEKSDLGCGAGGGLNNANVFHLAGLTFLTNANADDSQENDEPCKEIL
human serum complement factor C5 (human), sequence (P01031 678-1676 limits assumed, chain 2 of 2): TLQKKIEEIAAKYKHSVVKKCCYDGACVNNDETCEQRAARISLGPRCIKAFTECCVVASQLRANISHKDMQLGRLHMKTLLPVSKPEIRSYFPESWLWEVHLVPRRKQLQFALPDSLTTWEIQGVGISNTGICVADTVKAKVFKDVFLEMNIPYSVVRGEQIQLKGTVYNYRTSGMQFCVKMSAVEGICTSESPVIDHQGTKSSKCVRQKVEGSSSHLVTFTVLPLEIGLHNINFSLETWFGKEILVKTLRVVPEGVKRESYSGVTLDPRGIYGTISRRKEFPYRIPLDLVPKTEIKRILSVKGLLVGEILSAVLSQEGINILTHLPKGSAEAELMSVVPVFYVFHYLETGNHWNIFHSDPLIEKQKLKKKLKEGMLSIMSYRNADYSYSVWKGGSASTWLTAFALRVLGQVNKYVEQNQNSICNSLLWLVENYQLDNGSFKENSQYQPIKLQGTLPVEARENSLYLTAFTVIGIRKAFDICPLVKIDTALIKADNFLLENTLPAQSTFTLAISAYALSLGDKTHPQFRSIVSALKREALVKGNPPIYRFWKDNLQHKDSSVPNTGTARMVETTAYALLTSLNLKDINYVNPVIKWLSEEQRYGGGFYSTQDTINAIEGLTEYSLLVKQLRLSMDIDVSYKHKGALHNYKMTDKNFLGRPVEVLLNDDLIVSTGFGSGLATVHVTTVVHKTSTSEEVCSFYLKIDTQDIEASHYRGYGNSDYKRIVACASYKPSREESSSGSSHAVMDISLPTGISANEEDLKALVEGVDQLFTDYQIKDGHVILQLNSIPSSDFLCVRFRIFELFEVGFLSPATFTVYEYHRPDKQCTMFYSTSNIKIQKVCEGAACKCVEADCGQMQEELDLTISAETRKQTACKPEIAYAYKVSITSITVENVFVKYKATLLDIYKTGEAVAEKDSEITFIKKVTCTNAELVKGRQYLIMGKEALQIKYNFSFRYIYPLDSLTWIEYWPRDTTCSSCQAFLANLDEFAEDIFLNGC
TfR-IgA Fc fusion protein, Leu256Ala mutant (Homo sapiens (Human)), sequence (P01876 123-331 L137A limits assumed): as the sequence (P01876 123-331 L139A limits assumed) above, with L15A, A17L counted along it
TfR-IgA Fc fusion protein, Asn316Ala mutant (Homo sapiens (Human)), sequence (P01876 123-331 N197A limits assumed): as the sequence (P01876 123-331 L139A limits assumed) above, with A17L, N75A counted along it
TfR-IgA Fc fusion protein, His317Ala mutant (Homo sapiens (Human)), sequence (P01876 123-331 H198A limits assumed): as the sequence (P01876 123-331 L139A limits assumed) above, with A17L, H76A counted along it

Row | Substance | Change (fold in KD against SSL7 wild-type) (human serum IgA (human)) | Kd (human serum IgA (human)) | further results
1 | recombinant SSL7 (GL1 S. aureus Greenlane), wild type | – | – | fold reduction of binding against WT IgA Fc [1]: 15.4 fold; fold reduction of binding against WT IgA Fc [2]: 1.2 fold; fold reduction of binding against WT IgA Fc [3]: 11.5 fold; fold reduction of binding against WT IgA Fc [4]: 6.5 fold; fold reduction of binding against WT IgA Fc [5]: 1.8 fold
2 | SSL7 mutant N38T | 35 fold | 38 nM | –
3 | SSL7 mutant P82A | 35 fold | 39 nM | –
4 | SSL7 mutant R44A | 3.2 fold | 3.6 nM | –
5 | SSL7 mutant N83A | 4 fold | 4 nM | –
6 | SSL7 mutant L79A | 91 fold | 100 nM | –
7 | SSL7 wild-type (haemolysis assay of FIG. 9) | – | – | haemolysis at 2 µM, % of the maximum lysis [6]: 10%; inhibition of haemolysis at 2 µM [6]: 90%
8 | FcαRI-Ig (from UniProt P24071 22-227) (Fc fusion) | – | – | fold reduction of binding against WT IgA Fc [7]: 2.3 fold; fold reduction of binding against WT IgA Fc [8]: 3.3 fold; fold reduction of binding against WT IgA Fc [9]: > 100 fold
